Experimental data as given in patent US20040259112A1.

How the values were obtained:
[1] = molecular target: human vimentin (full length) (human) (UniProt P08670); assay: cell-based or functional assay
[2] = molecular target: human vimentin (full length) (human) (UniProt P08670); assay: quantitative FACS (quantum simply cellular beads) on HL60/AR cells at saturating antibody (40 µg)
[3] = molecular target: human vimentin (full length) (human) (UniProt P08670); assay: Scatchard analysis, intact cell radioimmunoassay with 125I-labeled antibody on MDA/mito cells; average of 5 determinations
[4] = molecular target: human vimentin (full length) (human) (UniProt P08670); assay: quantitative FACS (quantum simply cellular beads) on HL60 cells at saturating antibody (40 µg)
[5] = molecular target: human vimentin (full length) (human) (UniProt P08670); assay: quantitative FACS (quantum simply cellular beads) on MCF-7/AR cells at saturating antibody (50 µg)
[6] = molecular target: human vimentin (full length) (human) (UniProt P08670); assay: quantitative FACS (quantum simply cellular beads) on MCF-7 cells at saturating antibody (50 µg)
[7] = molecular target: human vimentin (full length) (human) (UniProt P08670); assay: Scatchard analysis, intact cell radioimmunoassay with 125I-labeled antibody on MDA cells
[8] = molecular target: human vimentin (full length) (human) (UniProt P08670); assay: FACS, indirect immunofluorescence on HL60 cells with 2.5 µg to 40 µg antibody; isotype control subtracted

Chain of human vimentin (full length) (human) (P08670 other isoform, or with tags, fused parts or gaps limits assumed): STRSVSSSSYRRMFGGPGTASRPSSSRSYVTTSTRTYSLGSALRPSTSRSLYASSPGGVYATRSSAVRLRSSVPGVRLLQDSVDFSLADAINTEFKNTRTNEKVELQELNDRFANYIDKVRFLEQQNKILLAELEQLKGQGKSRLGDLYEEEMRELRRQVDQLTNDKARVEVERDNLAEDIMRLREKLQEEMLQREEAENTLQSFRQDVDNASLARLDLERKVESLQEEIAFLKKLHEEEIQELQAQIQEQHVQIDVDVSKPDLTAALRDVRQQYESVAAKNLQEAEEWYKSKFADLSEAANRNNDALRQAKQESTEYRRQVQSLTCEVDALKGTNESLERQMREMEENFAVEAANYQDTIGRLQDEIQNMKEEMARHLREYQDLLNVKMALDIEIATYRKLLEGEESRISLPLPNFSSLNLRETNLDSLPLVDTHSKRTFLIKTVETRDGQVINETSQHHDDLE

“mouse monoclonal anti-vimentin antibody (clone V9, NeoMarker MS-129-P)” was tested, and the % internalization of 125I-labeled antibody, MCF-7/AR cells in suspension (difference between 4 and 37° C.) [1] was 38.2%, the increase in cytotoxicity of 125I-labeled antibody on HL60/AR against HL60 (MTT based assay) [1] was 10% and the percent internalization of vimentin, adherent MCF-7/AR cells (difference between 4 and 37° C.) [1] was 11.3%. The percent internalization of vimentin, adherent MDA cells (difference between 4 and 37° C.) [1] was 25.3%, the percent internalization of vimentin, adherent MDA/AR cells (difference between 4 and 37° C.) [1] was 24.8% and the percent internalization of vimentin, adherent MDA/mito cells (difference between 4 and 37° C.) [1] was 8.9%. It also gave an antibody molecules bound per cell (molecules of vimentin per cell) (molecules per cell) [2] of 5050, a Kd [3] of 5.7 nM and an antibody molecules bound per cell (molecules of vimentin per cell) (molecules per cell) [4] of 186. It also gave an antibody molecules bound per cell (molecules of vimentin per cell) (molecules per cell) [5] of 22000, an antibody molecules bound per cell (molecules of vimentin per cell) (molecules per cell) [6] of 14600 and a Kd [7] of 9.3 nM. For the same substance, the fluorescence intensity (RFI) [8] was 0.2 to 0.9 RFI.
